# Laboratory results taken from patent US20250152746A1, “BASE EDITING OF ANGPTL3 AND METHODS OF USING SAME FOR TREATMENT OF DISEASE” (Verve Therapeutics, Inc., priority 2020, published 2025).
# Where two headings read alike, the source gives them in different places.
# Key:
# ANGPTL3 gene [1] = assay: ANGPTL3 gRNA/SpCas9 editing in primary human hepatocytes (Table 3); format: cell-based
# Protocol: (§1) In set of experiments, PCSK9 gRNAs were co-transfected with an equivalent amount (1:1 ratio by weight) of in vitro transcribed commercially available SpCas9 mRNA MS002 purchased from TriLink Biotechnologies into primary human hepatocytes at 2500, 500, or 100 ng/RNA/mL and processed as described in detailed methods. Extracted genomic DNA was analyzed for gene editing at the target site with next-generation sequencing of PCR amplicons generated around the target sites. Samples were prepared using the Nextera XT DNA library preparation kit (Illumina) according to the manufacturer's protocol. Briefly, two rounds of PCR were performed first to amplify the region of interest and second to add DNA sequences required for next generation sequencing and sample identification to the initial product. The final amplicon was sequenced on the Illumina MiSeq instrument according to the manufacturer's protocol. A wide range of editing activities (Table 2) were observed. In a second set of experiments, ANGPTL3 gRNAs were co-transfected with an equivalent amount of in vitro transcribed SpCas9 mRNA (1:1 ratio by weight) into primary human hepatocytes and processed and analyzed similarly (Table 3).
# (§2) Plating, culturing, and transfection of primary hepatocytes. Primary human liver hepatocytes (PHH) and primary cynomolgus liver hepatocytes (PCH) from BioIVT were cultured per the manufacturer's protocol. Briefly, primary human hepatocytes and primary cyno hepatocytes were obtained as frozen aliquots from BioIVT. Four lots of primary human hepatocytes, each derived from a de-identified individual donor, were used for the experiments: STL (main donor) was used for all experiments, including screening experiments and off-target experiments; HLY, JLP, and TLY were used for off-target experiments. The HFG lot of primary cyno hepatocytes were used for experiments. Following the manufacturer's instructions, cells were thawed and rinsed prior to plating in 24-well plates that had been coated with bovine collagen overnight, with a density of approximate 350,000 cells/well in INVITROGRO hepatocyte medium supplemented with TORPEDO antibiotic mix (BioIVT). The cells were thawed and resuspended in hepatocyte thawing medium followed by centrifugation at 100 g for 10 min at 4° C. The supernatant was discarded, and the pelleted cells resuspended in hepatocyte plating medium. Each vial contains approximately 5 million cells that were used for plating one 24-well plate. Plated cells were allowed to settle and adhere for 4-6 h in a tissue culture incubator at 37° C. under 5% CO2 atmosphere. After incubation, cells were checked for monolayer formation. The incubating media were then replaced with fresh hepatocyte maintenance media (complete INVITROGRO medium obtained from BioIVT, the cell line provider). The cells thus became ready for transfection. Each of the gRNAs were co-transfected with an equivalent amount of in vitro transcribed ABE8.8 mRNA (1:1 ratio by molecular weight) into primary human hepatocytes via MessengerMax reagent (Lipofectamine), using various dilutions to assess for editing activity at different concentrations of test article. MessengerMAX from Thermo Fisher is used for transfection. Solution A: desired amount of guide RNA is mixed with 1:1 wt ratio of mRNA in OptiMEM. Solution B: MessengerMAX in OptiMEM. After mixing solutions A and B, the mixture was incubated at room temperature for 20 min. 60 μL of the incubated solution was added dropwise to each cell wells. For protospacer sequences that were a perfect match to the corresponding cynomolgous monkey PCSK9 or ANGPTL3 gene sequence, each gRNA was also co-transfected with an equivalent amount of ABE8.8 mRNA (1:1 ratio by molecular weight) into primary cynomolgous hepatocytes, and followed the same transfection protocol. The cells were then allowed to remain at 37° C. for 3 days. […]
# ANGPTL3 gene [2] = assay: ANGPTL3 gRNA/SpCas9 editing in primary cynomolgus hepatocytes (Table 3); format: cell-based, cynomolgus monkey
# Protocol: as §1, §2
Molecule,Human Primary Hepatocyte Editing % 100 ng/ml (ANGPTL3 gene [1]) [%],Human Primary Hepatocyte Editing % 500 ng/mL (ANGPTL3 gene [1]) [%],Cyno Primary Hepatocyte Editing % 100 ng/mL (ANGPTL3 gene [2]) [%],Cyno Primary Hepatocyte Editing % 500 ng/ml (ANGPTL3 gene [2]) [%],"Human Primary Hepatocyte Editing % 100 ng/ml (ANGPTL3 gene [1]; 100 ng/ml, SpCas9 mRNA 1:1 by weight) [%]","Human Primary Hepatocyte Editing % 500 ng/mL (ANGPTL3 gene [1]; 500 ng/mL, SpCas9 mRNA 1:1 by weight) [%]","Cyno Primary Hepatocyte Editing % 100 ng/mL (ANGPTL3 gene [2]; 100 ng/mL, SpCas9 mRNA 1:1 by weight) [%]","Cyno Primary Hepatocyte Editing % 500 ng/ml (ANGPTL3 gene [2]; 500 ng/ml, SpCas9 mRNA 1:1 by weight) [%]"
"GA143: ANGPTL3 gRNA; protospacer TTAATTCAACATCGAATAGA (SEQ ID NO: 141) (nucleic acid, 2'-O-methyl at 1, 2, other sugars, backbone and T or U not given here; further chemistry not fully specified) guide: UUAATTCAACATCGAATAGAGTTTTAGAGCTAGAAATAGCAAGTTAAAATAAGGCTAGTCCGTTATCAACTTGAAAAAGTGGCACCGAGTCGGTGCTTTT",9.30,19.36,14.84,21.16,–,–,–,–
"GA141: ANGPTL3 gRNA; protospacer TTGAGAGTTGCTGGGTCTGA (SEQ ID NO: 139) (nucleic acid, 2'-O-methyl at 1, 2, other sugars, backbone and T or U not given here; further chemistry not fully specified) guide: UUGAGAGTTGCTGGGTCTGAGTTTTAGAGCTAGAAATAGCAAGTTAAAATAAGGCTAGTCCGTTATCAACTTGAAAAAGTGGCACCGAGTCGGTGCTTTT",5.80,14.87,5.49,10.32,–,–,–,–
"GA148: ANGPTL3 gRNA; protospacer ACAAAACTTCAATGAAACGT (SEQ ID NO: 146) (nucleic acid, 2'-O-methyl at 1, 2, other sugars and backbone not given here; further chemistry not fully specified) guide: ACAAAACTTCAATGAAACGTGTTTTAGAGCTAGAAATAGCAAGTTAAAATAAGGCTAGTCCGTTATCAACTTGAAAAAGTGGCACCGAGTCGGTGCTTTT",12.01,31.67,28.57,69.75,–,–,–,–
"GA107: ANGPTL3 gRNA; protospacer AGCCAATGGCCTCCTTCAGT (SEQ ID NO: 105) (nucleic acid, 2'-O-methyl at 1, 2, other sugars and backbone not given here; further chemistry not fully specified) guide: AGCCAATGGCCTCCTTCAGTGTTTTAGAGCTAGAAATAGCAAGTTAAAATAAGGCTAGTCCGTTATCAACTTGAAAAAGTGGCACCGAGTCGGTGCTTTT",3.72,5.09,32.58,–,–,–,–,–
"GA142: ANGPTL3 gRNA; protospacer TGAAAAACTTGAGAGTTGCT (SEQ ID NO: 140) (nucleic acid, 2'-O-methyl at 1, 2, other sugars, backbone and T or U not given here; further chemistry not fully specified) guide: UGAAAAACTTGAGAGTTGCTGTTTTAGAGCTAGAAATAGCAAGTTAAAATAAGGCTAGTCCGTTATCAACTTGAAAAAGTGGCACCGAGTCGGTGCTTTT",–,–,–,–,10.50,24.90,20.09,27.59
"GA145: ANGPTL3 gRNA; protospacer CATTATATTCAGGTAGTCCA (SEQ ID NO: 143) (nucleic acid, 2'-O-methyl at 1, 2, other sugars and backbone not given here; further chemistry not fully specified) guide: CATTATATTCAGGTAGTCCAGTTTTAGAGCTAGAAATAGCAAGTTAAAATAAGGCTAGTCCGTTATCAACTTGAAAAAGTGGCACCGAGTCGGTGCTTTT",12.55,26.33,18.77,30.34,–,–,–,–
"GA132: ANGPTL3 gRNA; protospacer GGAAGATAGAGAAATTTCTG (SEQ ID NO: 130) (nucleic acid, 2'-O-methyl at 1, 2, other sugars and backbone not given here; further chemistry not fully specified) guide: GGAAGATAGAGAAATTTCTGGTTTTAGAGCTAGAAATAGCAAGTTAAAATAAGGCTAGTCCGTTATCAACTTGAAAAAGTGGCACCGAGTCGGTGCTTTT",15.25,28.39,15,26,–,–,–,–
"GA130: ANGPTL3 gRNA; protospacer ATGATGGTAAGACACTTTGG (SEQ ID NO: 128) (nucleic acid, 2'-O-methyl at 1, 2, other sugars, backbone and T or U not given here; further chemistry not fully specified) guide: AUGATGGTAAGACACTTTGGGTTTTAGAGCTAGAAATAGCAAGTTAAAATAAGGCTAGTCCGTTATCAACTTGAAAAAGTGGCACCGAGTCGGTGCTTTT",7.51,17.09,14.60,25.90,–,–,–,–
"GA137: ANGPTL3 gRNA; protospacer TATCAGGTAAAACCTGTCTA (SEQ ID NO: 135) (nucleic acid, 2'-O-methyl at 1, 2, other sugars, backbone and T or U not given here; further chemistry not fully specified) guide: UATCAGGTAAAACCTGTCTAGTTTTAGAGCTAGAAATAGCAAGTTAAAATAAGGCTAGTCCGTTATCAACTTGAAAAAGTGGCACCGAGTCGGTGCTTTT",11.44,29.70,28.01,30.57,–,–,–,–
"GA151: ANGPTL3 gRNA; protospacer GAGAACTACAAATATGGTTT (SEQ ID NO: 149) (nucleic acid, 2'-O-methyl at 1, 2, other sugars and backbone not given here; further chemistry not fully specified) guide: GAGAACTACAAATATGGTTTGTTTTAGAGCTAGAAATAGCAAGTTAAAATAAGGCTAGTCCGTTATCAACTTGAAAAAGTGGCACCGAGTCGGTGCTTTT",10.56,31.88,11.32,38.91,–,–,–,–
"GA131: ANGPTL3 gRNA; protospacer GAAGATAGAGAAATTTCTGT (SEQ ID NO: 129) (nucleic acid, 2'-O-methyl at 1, 2, other sugars and backbone not given here; further chemistry not fully specified) guide: GAAGATAGAGAAATTTCTGTGTTTTAGAGCTAGAAATAGCAAGTTAAAATAAGGCTAGTCCGTTATCAACTTGAAAAAGTGGCACCGAGTCGGTGCTTTT",–,18.64,10.10,27.57,–,–,–,–
